Source: US5273879, “Amplification method for polynucleotide assays” (Syntex (U.S.A.) Inc.)

Target: Klenow fragment DNA polymerase (UniProt P00582 P00582:324-928)
Assay: primer extension, 7 mM MgCl2, 50 mM NaCl, 37 C
Details: tags: Pharmacia Lot NM 92818; label: 5'-32P on 17 mer
Description: The 120 mer (1 μg=25 pmoles) was incubated with a ten-fold molar excess (1.4 μg=250 pmoles) of 17 mer including all of the radioactively labeled 17 mer described above at 60° C. for 5 minutes and then slowly cooled over 30 minutes to 37° C. in a volume of 20.2 μl in 1.3×Klenow buffer (1×Klenow buffer is 7 mM Tris-HCl (pH 7.5), 7 mM MgCl_2, 50 mM NaCl). To this cooled reaction mix was added 2 μl of a solution of 0.4 mM dATP, dCTP, dGTP, dTTP (final conc.=32 μM of each dNTPs), 1.8 μl of 0.1M dithiothreitol (final conc.=[…]) and 7.2 units of Klenow polymerase (Pharmacia Lot #NM 92818) in a final concentration of 1×Klenow buffer. This reaction was incubated at 37° C. for 30 minutes. An additional 7.2 units of Klenow polymerase (1 μl volume) was added and the reaction was continued at 37° C. for one hour.
The reaction products were ethanol precipitated by the addition of 375 μl of 0.3M Na Acetate (pH 5.4) and 1.1 ml ethanol (−20° C.), followed by spinning at 15,000 g's for 30 minutes. The precipitated DNA was then resuspended in 25 μl of H_2O and reprecipitated with 1 ml of 100% ethanol (4° C.) and centrifugation as above. The supernatant was removed and the precipitated DNA pellet dried under vacuum.

Sequence of Klenow fragment DNA polymerase (P00582 324-928, one chain of several): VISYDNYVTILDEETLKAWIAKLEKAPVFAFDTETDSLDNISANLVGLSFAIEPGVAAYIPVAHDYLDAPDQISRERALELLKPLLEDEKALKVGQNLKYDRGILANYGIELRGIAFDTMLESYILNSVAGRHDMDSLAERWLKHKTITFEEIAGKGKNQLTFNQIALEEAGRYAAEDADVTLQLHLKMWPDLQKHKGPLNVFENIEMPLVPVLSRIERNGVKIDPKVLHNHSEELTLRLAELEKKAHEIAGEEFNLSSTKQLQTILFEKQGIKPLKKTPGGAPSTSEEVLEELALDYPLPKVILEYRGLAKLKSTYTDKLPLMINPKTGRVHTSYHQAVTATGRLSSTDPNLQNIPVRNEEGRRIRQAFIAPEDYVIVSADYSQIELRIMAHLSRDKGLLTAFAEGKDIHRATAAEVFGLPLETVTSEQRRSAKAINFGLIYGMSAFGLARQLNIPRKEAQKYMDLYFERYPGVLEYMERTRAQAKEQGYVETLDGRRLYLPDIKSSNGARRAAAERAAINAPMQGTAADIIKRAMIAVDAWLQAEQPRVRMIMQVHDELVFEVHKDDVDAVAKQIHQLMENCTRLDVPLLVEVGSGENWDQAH

B1: 120 mer repeating template / 17 mer primer, extended (dsDNA)
DNA 1: CGGGGAATTCTTTAAATATTCCTTTAAACCTACCTTTAAACCTACCTTTAAACCTACCTTTAAACCTACCTTTAAACCTACCTTTAAACCTACCTTTAAATATTCCGAATTCACTGGCCG
DNA 2: CGGCCAGTGAATTCGGA
- binding result: binds
